The record followed here is paper PMC11804793, “Characterization of a C-methyltransferase from Streptomyces griseoviridis – crystal structure, mechanism, and substrate scope” (Chemical Science, 2025).

The target in one data set is T1, SgMT (Streptomyces griseoviridis, UniProt A0A918GRY4).
T1 construct: gene GCM10010238_52040; C-terminally His-tagged for kinetics, produced in E. coli BL21 (DE3), Ni-NTA purified; dimer; residues before T7 disordered in crystal
T1 sequence (A0A918GRY4 1-269): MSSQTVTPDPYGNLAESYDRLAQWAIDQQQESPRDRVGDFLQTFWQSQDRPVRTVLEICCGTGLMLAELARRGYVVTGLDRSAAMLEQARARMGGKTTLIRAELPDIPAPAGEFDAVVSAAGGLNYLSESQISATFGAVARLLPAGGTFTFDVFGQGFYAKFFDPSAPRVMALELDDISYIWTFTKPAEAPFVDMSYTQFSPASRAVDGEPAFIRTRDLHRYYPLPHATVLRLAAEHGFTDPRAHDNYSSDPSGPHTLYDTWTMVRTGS
The data set is described as follows: X-ray crystallography, […] Å. Type of data set: binding. The following applies: non-methylated form of the cofactor, co-crystallised; cWW in the sample but not seen in density.

The target of data set [1] is SAM-dependent indole C3-methyltransferase SgMT from Streptomyces griseoviridis (Streptomyces griseoviridis). Nature of the data set: crystal structure; SgMT crystallised in the presence of SAH (cWW included in the sample but not seen); space group P4(1)2(1)2, three protein chains per asymmetric unit; dmin 1.47 Å.
Substrate in data set [2]: O=C1N[C@@H](Cc2c[nH]c3ccccc23)C(=O)N[C@H]1Cc1c[nH]c2ccccc12
Nature of the data set: MTase Glo luminescence assay (SAH formation), Michaelis-Menten. Type of data set: biochemical, Streptomyces griseoviridis. The conditions noted are these: co-substrate SAM; C-terminally His-tagged enzyme.

With `Nc1ncnc2c1ncn2[C@@H]1O[C@H](CSCC[C@H](N)C(=O)O)[C@@H](O)[C@H]1O` [SAH], the “X-ray crystallography, 1.47 Å” value on SgMT is “we crystallised the protein in the presence of the cofactor (using the non-methylated form, SAH)”. For “SAM-dependent indole C3-methyltransferase SgMT from Streptomyces griseoviridis (enzyme)”, the stoichiometry N in data set [1] amounted to 2.

B1: SgMT (Streptomyces griseoviridis) (protein)
chain: T1 sequence (A0A918GRY4 1-269)
notes: C-terminally His-tagged for kinetics, produced in E. coli BL21 (DE3), Ni-NTA purified; dimer; residues before T7 disordered in crystal
For the molecule B1, in data set [2], the Km was 10.53 ± 2.01 µM and the kcat worked out at 0.0025 s⁻¹.

The stoichiometry N is the number of molecules, sites or subunits per partner or assembly. One may read the Km as the substrate concentration at which the rate is half of its maximum. What is called kcat is the maximal rate divided by the concentration of active sites.
